# B1: mAb 9E8: monoclonal IgM raised against KKDC peptide (Lys158-Asn171) of heparanase; VH SEQ ID NO: 7, VL SEQ ID NO: 8 (antibody)
# VH: EVKLLESGGGLVQPGGSLKLSCAASGFDFSRYWMSWVRQAPGKGLEWIGEINPDSSTINYTPSLKDKFIISRDNAKNTLYLQMSKVRSEDTALYYCARRGYEGNYAMDYWGQGTSVTVSSESQSFPNVFPLVSCESPLSDKNLVAMGCLAR
# VL: DIVMTQAAPSVPVTPGESVSISCRSSKSLLHSNGNTYLYWFLQRPGQSPQLLIYRMSNLASGVPDRFSGSGSGTAFTLRISRVEAEDVGVYYCMQHLEYPFTFGSGTKLEIKRADAAPTVSIFPPSSEQLTSGGASVVCFL
# modifications: IgM constant regions
# Tests used:
# [1] = tested on: U87 glioma cells; assay: Matrigel cell invasion, U87 glioma cells; assay type: cell-based, human; details: mAb 2 μg, 6 h
# Protocol: Cell invasion. Matrigel invasion assay was performed using modified Boyden chambers with polycarbonate Nucleopore membrane (Corning, Corning, N.Y.), essentially as described (17). Briefly, filters (6.5 mm in diameter, 8 μm pore-size) were coated with Matrigel (30 μl); Cells (2×10^5) in 100 μl of serum-free medium were seeded in triplicate on the upper part of each chamber, and the lower compartment was filled with 600 μl medium supplemented with 10% FCS. After incubation for 5 h at 37° C. in a 5% CO2 incubator, non-invading cells on the upper surface of the filter were wiped with a cotton swab, and migrated cells on the lower surface of the filter were fixed, stained with 0.5% crystal violet (Sigma) and counted by examination of at least seven microscopic fields.
# FIG. 5A. Cell invasion. Cal-27 tongue carcinoma (left panels) and U87 glioma cells (right panels) (2×10^5) were plated onto Matrigel-coated filters in the presence of mouse IgM/IgG (upper panels), mAb 9E8 (2 μg; second left and middle panels). Invading cells adhering to the lower side of the membrane were visualized after 6 h. […] Lungs were harvested after 18 days, photographed (lower panel) and the number of metastatic lesions was counted (upper panel; p=0.001, 0.0006, 0.0001 for Con vs. Ab 1453, Con vs. mAb 9E8 and Con vs. SST0001, respectively). […]
# [2] = tested on: Mouse B16 melanoma cells; assay: B16 melanoma experimental lung metastasis; assay type: in vivo; details: C57Bl/6 mice, given with the cells: Ab #1453 250 μg, mAb 9E8 500 μg, SST0001 400 μg; lungs after 18 days
# Protocol: Experimental metastasis. B16 BL6 mouse melanoma (2×10^5) or LM2-4 human breast cancer cells (2×10^6) were injected into the tail vein of C57/BL mice or SCID/Beige mice (respectively) together with the indicated compound, essentially as described (Hostettler N, et al. 2007, FASEB J 21(13):3562-3572). Lungs were harvested 18 days thereafter and metastases occurrence was determined following fixation by gross inspection and histology (Weissmann et al, 2016, Proc Natl Acad Sci USA 113:704-709).
# FIG. 5A. Cell invasion. Cal-27 tongue carcinoma (left panels) and U87 glioma cells (right panels) (2×10^5) were plated onto Matrigel-coated filters in the presence of mouse IgM/IgG (upper panels), mAb 9E8 (2 μg; second left and middle panels). Invading cells adhering to the lower side of the membrane were visualized after 6 h. The number of invading cells per high power field is shown graphically at the lower panels. FIG. 5B, FIG. 5C. Tumor metastasis. FIG. 5B Mouse B16 melanoma cells (2×10^5) were inoculated into the tail vein of C57Bl/6 mice (n=7) together with rabbit IgG (300 μg; Con), Ab #1453 (250 μg), mAb 9E8 (500 μg) or SST0001 (400 μg). Lungs were harvested after 18 days, photographed (lower panel) and the number of metastatic lesions was counted (upper panel; p=0.001, 0.0006, 0.0001 for Con vs. Ab 1453, Con vs. mAb 9E8 and Con vs. SST0001, respectively). […]
molecule,measurement,setting,value
B1,cell invasion,[1],inhibitory effect
same,experimental lung metastasis (number of metastatic lesions),[2],inhibitory effect
